From paper doi:10.1101/2020.07.09.195057 (bioRxiv, 2020)

T1: Dcp1(1-127) (S. pombe, UniProt Q9P805 1-127, perdeuterated background, 1H/13C-labelled ILVMA terminal methyl groups)
T1 sequence (looked up): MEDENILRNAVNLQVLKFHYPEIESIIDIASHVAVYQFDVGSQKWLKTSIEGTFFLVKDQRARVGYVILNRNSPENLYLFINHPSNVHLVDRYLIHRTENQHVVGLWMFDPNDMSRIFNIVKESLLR

T2: Dcp1/Dcp2core (Schizosaccharomyces pombe, UniProt Q9P805;O13828 1-127;1-243)
T2 sequence 1: T1 sequence (looked up)
T2 sequence 2: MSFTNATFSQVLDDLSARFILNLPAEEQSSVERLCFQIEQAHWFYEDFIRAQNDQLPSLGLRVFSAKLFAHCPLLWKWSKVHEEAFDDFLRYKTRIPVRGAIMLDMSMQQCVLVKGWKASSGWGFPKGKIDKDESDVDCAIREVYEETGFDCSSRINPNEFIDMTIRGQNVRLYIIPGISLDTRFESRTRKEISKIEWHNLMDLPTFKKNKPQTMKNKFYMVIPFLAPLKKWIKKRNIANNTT

B1: Dcp2(1-504)_(eSrtA), sortase-ligated Dcp2ext with C-terminal StrepII (domain or fragment, S. pombe)
chain: MSFTNATFSQVLDDLSARFILNLPAEEQSSVERLCFQIEQAHWFYEDFIRAQNDQLPSLGLRVFSAKLFAHCPLLWKWSKVHEEAFDDFLRYKTRIPVRGAIMLDMSMQQCVLVKGWKASSGWGFPKGKIDKDESDVDCAIREVYEETGFDCSSRINPNEFIDMTIRGQNVRLYIIPGISLDTRFESRTRKEISKIEWHNLMDLPTFKKNKPQTMKNKFYMVIPFLAPLKKWIKKRNIANNTTKEKNISVDVDADASSQLLSLLKSLPETGGGATPQPSTFPQPPVESHSSFDIKQKILHLLNEGNEPKSPIQLPPVSNLPLNPPIQSSNSRLSHDNNSFDPFAYLGLDPKNPSASFPRVVSQNNMLTNKPVLNNHFQQSMYSNLLKDQNSVQHLFAASDMPSPMELPSPSTVYHQVFYPPTSTSVSSYGLGKTPQPAYGSSSPYVNGHQTQQISSLPPFQSQTQFLARNSDNSGQSYNSEGDSNSKRLLSMLSQQDTTPSSST
modifications: residues 1-266 perdeuterated with 1H/13C-labelled ILVMA terminal methyl groups; 274-504 unlabelled

Key:
Dcp1(1-127) = target: T1, Dcp1(1-127); assay: co-purification
Dcp1/Dcp2core = target: T2, Dcp1/Dcp2core; assay: fluorescence polarization

Binder | binding result (Dcp1(1-127)) | binding result (Dcp1/Dcp2core)
B1 | binds | 
UUUUUUUUUUUUUUUUUUUUUUUUUUUUUU (ssRNA, 5' phosphate) [30U RNA] |  | binds
